Assay results reported in patent publication US20200255529A1 (PIONYR IMMUNOTHERAPEUTICS, published 2020).
Like-named read-outs stand apart in the source and are kept apart here.

B1: afucosylated PI-4928 anti-TREM1 antibody (antibody, mouse IgG2a, kappa, V domains shown)
VH: QVQLKESGPGLVQPSQTLSLTCTVSGFSITSSNVYWFRQPPGKGLEWMGNIWGDGSTDYNSSLKSRLTLSRDTSKNQVFLKINSLQSEDTATYFCTRSWEYYFDHWGQGVVVTVSS
VL: DIVLTQSPALAVSPGQRATLSCRASQSVTLSNVNLMNWYQQKPGQQPKLLIYHASNLASGIPTRFSGSGSGTDFTLTIDPVQADDIAAYYCQQSGESPRTFGGGTKVELKR
modifications: afucosylated
notes: Anti-mouse TREM1 surrogate, mIgG2a
B2: afucosylated PI-4026-5-M100 (parent) (antibody, human IgG1, kappa)
heavy: not shown
light: DIQLTQSPSSLSASVGDRVTITCSASSSVSYMHWYQQKPGKAPKLLLYTTSNLASGVPSRFSGSGSGTDYTLTISSLQPEDFATYYCHQWSGYPTFGQGTKLEIKRTVAAPSVFIFPPSDEQLKSGTASVVCLLNNFYPREAKVQWKVDNALQSGNSQESVTEQDSKDSTYSLSSTLTLSKADYEKHKVYACEVTHQGLSSPVTKSFNRGEC
modifications: afucosylated Fc glycan (made in FUT8-deficient expi293 cells)
B3: PI-4026-5 (antibody, human IgG1, kappa)
heavy: not shown
light: B2 light
notes: fucosylated form made in expi293 cells
B4: PI64052 (afucosylated PI-4026-5-M100L) (antibody, human IgG1, kappa)
heavy: not shown
light: B2 light
modifications: afucosylated Fc glycan (made in FUT8-deficient expi293 cells)
B5: PI64062 (afucosylated PI-4026-5-M100Q) (antibody, human IgG1, kappa)
heavy: not shown
light: B2 light
modifications: afucosylated Fc glycan (made in FUT8-deficient expi293 cells)
B6: PI-4026-5-M100I (fucosylated) (antibody, human IgG1, kappa)
heavy: not shown
light: B2 light
B7: afucosylated PI-4026-5-M100E (antibody, human IgG1, kappa)
heavy: not shown
light: B2 light
modifications: afucosylated Fc glycan (made in FUT8-deficient expi293 cells)
B8: PI-4026-5-M100Q (fucosylated) (antibody, human IgG1, kappa)
heavy: not shown
light: B2 light
notes: hIgG1, fucosylated; also called fucosylated parent of PI64062
B9: PI-4026-5-M100E (fucosylated) (antibody, human IgG1, kappa)
heavy: not shown
light: B2 light
B10: afucosylated PI-4026-5-M100I (antibody, human IgG1, kappa)
heavy: not shown
light: B2 light
modifications: afucosylated Fc glycan (made in FUT8-deficient expi293 cells)
B11: PI-4026-5-M100L (fucosylated) (antibody, human IgG1, kappa)
heavy: not shown
light: B2 light
notes: hIgG1, fucosylated; also called fucosylated parent of PI64052

Tests used:
[1] = molecular target: T1, Fc-tagged recombinant mouse TREM1 (R&D systems #1187-TR) (mouse, UniProt Q9JKE2 21-202); test: MSD ligand binding PK assay, plate coated with Fc-tagged recombinant mouse TREM1
T1 construct: Bought reagent; not shown: Fc tag
T1 sequence: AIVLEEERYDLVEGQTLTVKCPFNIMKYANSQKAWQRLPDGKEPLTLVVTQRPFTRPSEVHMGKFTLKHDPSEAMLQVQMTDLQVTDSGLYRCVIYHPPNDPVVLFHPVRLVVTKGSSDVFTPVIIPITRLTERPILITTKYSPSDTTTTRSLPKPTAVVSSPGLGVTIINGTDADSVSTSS
Procedure: A 96-well high-binding MSD plate was coated with Fc-tagged recombinant mouse TREM1 (R&D systems #1187-TR). After blocking, samples were added to the plate which bound the TREM1 protein. […] ECL signal was produced by the secondary antibody after the plate received an electric signal from an MSD plate reader. The ECL signal was detected and quantified by the plate reader.

[2] = molecular target: T2, Chimeric cynomolgus TREM1-mIgG Fc (cynomolgus, UniProt A0A2K5VHG8 21-204); test: SPR (Biacore T200), avid format: cynomolgus TREM1-mIgG Fc captured, antibody as analyte
T2 construct: not shown: mouse IgG Fc
T2 sequence: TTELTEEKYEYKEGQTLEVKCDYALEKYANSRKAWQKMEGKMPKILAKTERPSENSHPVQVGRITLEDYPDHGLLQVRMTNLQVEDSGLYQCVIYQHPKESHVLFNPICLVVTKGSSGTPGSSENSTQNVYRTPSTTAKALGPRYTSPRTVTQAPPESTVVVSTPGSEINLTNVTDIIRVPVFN
Procedure: All data were collected at 25° C. 10 mM HEPES pH 7.4, 150 mM NaCl, 3 mM EDTA, 0.05% (v/V) surfactant P20 was used as mobile buffer and for all dilution of mAbs. Anti-mouse Fc was immobilized on a CM4 biosensor chip (GE Healthcare) using amine coupling chemistry. Chimeric cynomolgus TREM1-mIgG Fc was captured on one flow cell and another flow cell (used as reference surface) was left blank. […] After each cycle, the surface was regenerated by injecting a glycine HCl buffer (10 mM, pH 2.0). BIAevaluation software was used to perform the kinetic evaluation. Kinetic evaluation was through generation of sensorgrams which were fitted with a 1:1 Langmuir binding model.

[3] = molecular target: T3, hCD16 on NFAT-luciferase reporter Jurkat cells (Promega) (human, UniProt P08637 17-254); test: cell-based or functional assay
T3 sequence (P08637 17-254 F176V): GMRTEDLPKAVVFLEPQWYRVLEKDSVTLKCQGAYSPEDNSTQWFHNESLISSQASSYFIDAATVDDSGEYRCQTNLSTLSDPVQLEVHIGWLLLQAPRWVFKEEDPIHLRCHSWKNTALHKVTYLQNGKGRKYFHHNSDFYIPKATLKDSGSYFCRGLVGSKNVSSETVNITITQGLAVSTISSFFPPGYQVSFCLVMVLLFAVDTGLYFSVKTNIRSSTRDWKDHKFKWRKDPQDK

[4] = molecular target: T4, cynomolgus TREM1 on cells (cynomolgus, UniProt A0A2K5VHG8 21-233); test: flow cytometry on HEK293 cells over-expressing cynomolgus TREM1
T4 construct: whole, on cells; Used for HEK293 cells over-expressing cynomolgus TREM1 and for primary cynomolgus monocytes; also called cynoTREM1; Cyno TREM1 cells
T4 sequence: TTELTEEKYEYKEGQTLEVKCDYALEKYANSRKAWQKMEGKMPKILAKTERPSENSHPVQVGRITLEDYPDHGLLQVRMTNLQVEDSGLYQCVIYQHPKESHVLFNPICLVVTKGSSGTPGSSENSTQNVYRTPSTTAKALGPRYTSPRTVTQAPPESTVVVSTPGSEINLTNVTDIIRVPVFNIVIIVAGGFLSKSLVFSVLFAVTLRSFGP

[5] = molecular target: T3, hCD16 on NFAT-luciferase reporter …; test: cell-based or functional assay; remark: listed apart in the source
[6] = molecular target: T4, cynomolgus TREM1 on cells; test: flow cytometry on HEK293 cells over-expressing cynomolgus TREM1; remark: listed apart in the source
[7] = molecular target: T5, mouse TREM1 on HEK293 cells (mouse, UniProt Q9JKE2 21-230); test: flow cytometry on HEK293 cells over-expressing mouse TREM1, Alexa 647 anti-human Fcγ secondary antibody
T5 construct: also called mTREM1; mouse TREM1 over-expressing cells
T5 sequence: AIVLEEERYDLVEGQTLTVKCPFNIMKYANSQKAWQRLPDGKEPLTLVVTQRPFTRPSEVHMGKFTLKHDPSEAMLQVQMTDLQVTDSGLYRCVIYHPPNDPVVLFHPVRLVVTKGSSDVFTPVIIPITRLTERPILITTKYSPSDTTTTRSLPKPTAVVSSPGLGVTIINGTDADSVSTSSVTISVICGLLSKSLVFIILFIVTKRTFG
Procedure: (§1) HEK293 over-expressing cynomolgus or mouse TREM1 in log phase growth were harvested from culture, washed, and plated in 96 well U bottom plates at 1×10⁵ cells/well. […] An Alexa 647-conjugated anti-human Fcγ secondary antibody (Jackson Immunoresearch) diluted at 1:500 was used to detect bound primary antibody. The secondary antibody was incubated with the cells for 30 mins on ice. […] Fluorescence signal from bound antibody was assessed by flow cytometry (ThermoFisher Attune NxT). EC50 values were calculated in Prism Software (Graphpad).

[8] = molecular target: T6, recombinant human His-tagged FcγRI (human, UniProt P12314 16-288); test: ELISA on plates coated with 1 ug/ml His-tagged human FcγRI (CD64), detection with HRP-conjugated anti-human F(ab')2
T6 construct: also called hFcγRI; not shown: His tag
T6 sequence (P12314 16-288 limits assumed): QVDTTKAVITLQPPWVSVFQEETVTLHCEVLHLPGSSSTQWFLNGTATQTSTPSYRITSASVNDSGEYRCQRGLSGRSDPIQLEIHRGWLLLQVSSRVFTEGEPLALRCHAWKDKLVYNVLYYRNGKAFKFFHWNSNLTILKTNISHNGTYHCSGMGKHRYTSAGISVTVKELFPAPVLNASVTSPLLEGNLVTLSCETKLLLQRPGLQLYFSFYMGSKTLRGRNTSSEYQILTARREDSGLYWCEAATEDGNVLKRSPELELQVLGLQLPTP
Procedure: 1 ug/ml of the indicated recombinant human His-tagged FcγR proteins (Sino Biologicals) were coated on MaxiSorp plates overnight at 4° c. […] Fc-mediated binding of the antibodies to the coated FcγR proteins was detected with a HRP-conjugated Fab′2 fragment against the Fab′2 portion of human IgG (Jackson Immunoresearch). TMB substrate (ThermoFisher) was used to quantitate the amount of HRP-conjugated secondary reagent bound to primary antibodies and H₃PO₄ was used to stop the reaction. Absorbance at 450 nm was measured using the Spectramax plate reader ([…]).

[9] = molecular target: T4, cynomolgus TREM1 on cells; test: flow cytometry on cynomolgus peripheral blood monocytes, experiment 2
Procedure: (§2) Fresh cynomolgus monkey blood (Worldwide Primates Inc) was red cell lysed and washed to enrich PBMC and granulocyte content. Cells were plated and Fc receptors were blocked with a combination of human serum (Jackson Immunoresearch) and a peptide-based FcR block solution (Innovex Biosciences). […] All antibodies used were directly conjugated and data was acquired by flow cytometry (ThermoFisher Attune NxT). EC50 values were calculated in Prism Software (Graphpad).

[10] = molecular target: T4, cynomolgus TREM1 on cells; test: flow cytometry on HEK293 cells over-expressing cynomolgus TREM1, experiment 3
Procedure: as §1, with “HEK293 cells” for “HEK293”, “cynomolgus” for “cynomolgus or mouse”

[11] = molecular target: T4, cynomolgus TREM1 on cells; test: flow cytometry on cynomolgus peripheral blood monocytes, experiment 1
Procedure: as §2

[12] = molecular target: T4, cynomolgus TREM1 on cells; test: flow cytometry on HEK293 cells over-expressing cynomolgus TREM1, experiment 1
Procedure: as §1, with “HEK293 cells” for “HEK293”, “cynomolgus” for “cynomolgus or mouse”

[13] = molecular target: T4, cynomolgus TREM1 on cells; test: flow cytometry on HEK293 cells over-expressing cynomolgus TREM1, experiment 2
Procedure: as §1, with “HEK293 cells” for “HEK293”, “cynomolgus” for “cynomolgus or mouse”

[14] = molecular target: T2, Chimeric cynomolgus TREM1-mIgG Fc; test: SPR (Biacore T200), avid format: cynomolgus TREM1-mIgG Fc captured, antibody as analyte; remark: listed apart in the source
[15] = molecular target: T3, hCD16 on NFAT-luciferase reporter …; test: cell-based or functional assay; remark: listed apart in the source
[16] = molecular target: T4, cynomolgus TREM1 on cells; test: flow cytometry on HEK293 cells over-expressing cynomolgus TREM1; cells overexpressing cynomolgus TREM1; EC50 about 6-fold weaker than parent (4.61 nM)
[17] = molecular target: T4, cynomolgus TREM1 on cells; test: flow cytometry on HEK293 cells over-expressing cynomolgus TREM1; cells overexpressing cynomolgus TREM1; EC50 about 12-fold weaker than parent (4.61 nM); background binding Y

Binder | Kd [2] | hCD16 ADCC assay EC50 [3] | EC50 [4] | hCD16 ADCC assay EC50 [5] | binding result [8] | also measured
B1 | – | – | – | – | – | binding result [1]: binds
B2 | 2.99 nM | 0.36 nM | 6.61 nM | – | – | –
B3 | 1.76 nM | – | – | 2.54 nM | – | EC50 [6]: 4.61 nM; binding result [7]: no binding (tested: 6 ug/ml)
B4 | 1.41 nM | 0.28 nM | 3.62 nM | – | binds | EC50 [9]: 7.16 nM; EC50 [10]: 42.8 nM; EC50 [11]: 7.84 nM; EC50 [12]: 3.62 nM; EC50 [13]: 4.67 nM; Kd [14]: 1.41 nM; hCD16 reporter assay EC50 (nM), experiment 1 [15]: 0.09 nM; hCD16 reporter assay EC50 (nM), experiment 2 [15]: 0.28 nM; hCD16 reporter assay EC50 (nM), experiment 3 [15]: 0.11 nM
B5 | 0.45 nM | 0.29 nM | 2.07 nM | – | binds | EC50 [9]: 7.84 nM; EC50 [10]: 7.89 nM; EC50 [11]: 7.94 nM; EC50 [12]: 2.07 nM; EC50 [13]: 3.25 nM; Kd [14]: 0.45 nM; hCD16 reporter assay EC50 (nM), experiment 1 [15]: 0.08 nM; hCD16 reporter assay EC50 (nM), experiment 2 [15]: 0.29 nM; hCD16 reporter assay EC50 (nM), experiment 3 [15]: 0.09 nM
B6 | 11.8 nM | – | – | 6.92 nM | – | EC50 [16]: 28.6 nM
B7 | 8.66 nM | 0.33 nM | 56 nM | – | – | –
B8 | 0.66 nM | – | – | 8.6 nM | binds | EC50 [6]: 6.04 nM
B9 | 6.19 nM | – | – | 3.18 nM | – | EC50 [17]: 58 nM
B10 | 13.4 nM | 0.39 nM | 22 nM | – | – | –
B11 | 1.43 nM | – | – | 5.86 nM | binds | EC50 [6]: 4.85 nM
